The source of these data is US20200157194A1 (Regeneron, published 2020).

Assay [1] concerns the target T1, human GREM1 (hGREM1-His; SEQ ID NO: 595) (human, UniProt O60565 25-184).
T1 construct: also called biotin-hGREM1-His; recombinant human GREM1 protein
T1 sequence: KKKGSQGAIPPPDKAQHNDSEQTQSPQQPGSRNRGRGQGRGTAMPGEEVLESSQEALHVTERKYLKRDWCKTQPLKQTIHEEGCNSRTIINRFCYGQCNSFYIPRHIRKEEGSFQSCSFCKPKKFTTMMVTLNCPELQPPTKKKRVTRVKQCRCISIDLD
Description: SPR, Biacore T200, 37 C, mAb captured, hGREM1-His injected.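 Note: HBS-EP running buffer containing heparin, association and dissociation phases tracked, KD computed as koff over kon and half-life derived from koff.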 In general terms: In SPR one partner is held on a chip, and binding of the other changes the refractive index at the surface.

Assay [2] concerns the target T2, recombinant human GREM1 (hGREM1-His; C-terminal 10His tagged, R&D, #5190-GR) (human, UniProt O60565 25-184, limits assumed).
T2 sequence: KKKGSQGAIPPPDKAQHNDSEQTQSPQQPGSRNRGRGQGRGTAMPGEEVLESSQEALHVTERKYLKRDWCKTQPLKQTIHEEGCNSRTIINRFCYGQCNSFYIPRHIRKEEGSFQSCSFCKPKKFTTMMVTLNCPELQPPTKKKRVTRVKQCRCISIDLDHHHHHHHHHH
Description: cell-based or functional assay.

Assay [3] addresses T1, human GREM1 (hGREM1-His; SEQ ID NO: 595). Description: SPR, Biacore T200, 25 C, mAb captured, hGREM1-His injected.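 Note: Heparin-supplemented HBS-EP+ used as running buffer, association and dissociation phases followed, Kd computed as koff divided by kon and half-life derived from koff.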
Assay [4] deals with T2, recombinant human GREM1 (hGREM1-His; …). Description: BLI Octet, mAb captured, 100 nM GREM1 + 5 uM heparin.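 Note: octet Red96 biolayer interferometry at 25 °C, antibodies captured on anti-human IgG Fc biosensors, pH 7.4 HEPES buffer with 0.1 mg/mL BSA.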 A general note: Biolayer interferometry detects binding as a change in optical thickness at a sensor tip.
Assay [5] shares this target. Description: BLI Octet, mAb captured, 100 nM GREM1.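 Note: octet Red96 biolayer interferometry at 25 °C in pH 7.4 HEPES saline buffer, antibodies held on anti-human IgG Fc capture biosensors, then exposed to GREM1.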
For assay [6] the target is unchanged. Description: cell-based or functional assay. The source holds these as a separate data set.
The target is the same in assay [7]. Description: BLI Octet, mAb captured, 100 nM GREM1 without vs with 5 uM heparin.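 Note: octet Red96 biolayer interferometry at 25 °C, antibodies captured on anti-human IgG Fc biosensors, association of GREM1 measured with versus without heparin in HEPES-buffered saline, pH 7.4.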
In assay [8] the target is T1, human GREM1 (hGREM1-His; SEQ ID NO: 595). Description: competition ELISA, biotin-hGREM1-His (100 pM) binding to coated hBMP4. A general note: ELISA stands for enzyme-linked immunosorbent assay.

B1: H4H6238P (antibody, human IgG4, V domains shown)
VH: QVQLVESGGGLVKPGGSLRLSCAASGFTFSDYYMSWIRQAPGKGLEWVSYIGTRGSSIYYADSLKGRFTISRDNAKNSLYLQMNSLRAEDTAVYYCARDPTGTSYFDYWGQGTLVTVSS
VL: not shown
notes: H4H prefix = human IgG4 Fc
Usually Kd stands for the free concentration of one partner at which half of the binding sites on the other are occupied at equilibrium, for simple one-to-one binding. A higher Kd goes with weaker binding. What is called koff is the first-order rate constant of dissociation. Lower therefore signals a long-lived complex. Usually kon stands for the rate constant with which the complex forms. What is called IC50 is the concentration that gives 50% inhibition. In assay [1], B1 displayed a Kd of 16.4 nM, a koff of 0.000931 s⁻¹, a kon of 56900 M⁻¹ s⁻¹ and a t1/2 of 12 min. Also, the “hGREM1-His Inhibition IC50, M; W-20-17 cell differentiation assay (alkaline phosphatase)” value in assay [2] was determined as 22 nM. Further, in assay [3], the Kd was 9.32 nM, the koff was 0.000225 s⁻¹, the kon is 24100 M⁻¹ s⁻¹ and the t1/2 is 51 min. Moreover, in assay [4], the “Binding Signal with 30 sec Association” value amounted to 0.02 nm and the “Binding Signal with 300 sec Association” value was determined as 0.33 nm. Also, in assay [5], the “Binding Signal with 30 sec Association” value was determined as 0.13 nm and the “Binding Signal with 300 sec Association” value turned out to be 0.41 nm. Besides, the “IC50 [M], inhibition of hGREM1-His, W-20-17/BRE-luc luciferase (100 pM hBMP4, 10 nM hGREM1-His)” value (“IC50 [M], inhibition of hGREM1-His” below) in assay [6] is 1.1e-09 M. In addition, in assay [7], the “Reduction in Signal from Heparin at 30 sec” value (“Reduction … at 30 sec” below) came to 0.11 nm and the “Reduction in Signal from Heparin at 300 sec” value (shortened to “Reduction … at 300 sec”) was 0.08 nm. Further, in assay [8], the “% blocked at maximum Ab tested (20 nM)” value was 64% and the IC50 amounted to 0.97 nM.

B2: H4H6233P (antibody, human IgG4, V domains shown)
VH: QVQLVESGGGVVQPGRSLRLSCAASGFTFSSYGMHWVRQAPGKGLEWVAVIWYDGSNYYYAASVKGRFTISRDNSENTLYLQMNRLRAEDTAVYYCAREGTGSTEDYFDYWGQGTLVTVSS
VL: EIVLTQSPATLSLSPGERATLSCRASQSVSSFLAWYQQKPGQAPRLLIYDASNRATGIPVRFSGSGSGTDFTLTISSLEPEDFAVYYCQQRSNWPPYTFGQGTKLEIK
notes: H4H prefix = human IgG4 Fc
In assay [1], B2 gave a Kd of 3.26 nM, a koff of 0.000512 s⁻¹, a kon of 157000 M⁻¹ s⁻¹ and a t1/2 of 23 min. Moreover, the “hGREM1-His Inhibition IC50, M; W-20-17 cell differentiation assay (alkaline phosphatase)” value in assay [2] came to 23 nM. Moreover, in assay [3], the Kd worked out at 1.88 nM, the koff turned out to be 0.000172 s⁻¹, the kon is 91300 M⁻¹ s⁻¹ and the t1/2 stood at 67 min. In assay [4], the “Binding Signal with 30 sec Association” value was 0.08 nm and the “Binding Signal with 300 sec Association” value came to 0.41 nm. In addition, in assay [5], the “Binding Signal with 30 sec Association” value was found to be 0.19 nm and the “Binding Signal with 300 sec Association” value came out at 0.47 nm. For the same molecule, in assay [6], the “IC50 [M], inhibition of hGREM1-His” value is 4.1e-10 M. In addition, in assay [7], the “Reduction … at 30 sec” value turned out to be 0.11 nm and the “Reduction … at 300 sec” value was 0.06 nm. Moreover, in assay [8], the “% blocked at maximum Ab tested (20 nM)” value came to 66% and the half-inhibitory concentration (IC50) stood at 0.69 nM.

B3: H4H6243P (antibody, human IgG4, V domains shown)
VH: QVQLVQSGAEVKKPGASVKVSCKVSGYTLTELSMHWVRQAPGKGLEWMGGFDPEDGETIYAQKFQDRVTMTEDTSTDTAYMELSSLRSEDTAVYYCVTDDYEILPEYPYNMDVWGQGTTVTVSS
VL: DIQMTQSPSSLSASVGDRVTITCRASQSISTYLNWYQQKPGKAPKLLIYAASSLQSGVPSRFSGSGSGTDFTLTIRSLQPEDFATYYCQQSHITPFTFGPGTKVDIK
notes: H4H prefix = human IgG4 Fc
For B3, in assay [1], the Kd turned out to be 68.7 nM, the koff amounted to 0.000484 s⁻¹, the kon was found to be 7050 M⁻¹ s⁻¹ and the t1/2 was 24 min. For the same molecule, the “hGREM1-His Inhibition IC50, M; W-20-17 cell differentiation assay (alkaline phosphatase)” value in assay [2] amounted to 5.9 nM. In assay [3], this molecule returned a Kd of 11.3 nM, a koff of 0.000178 s⁻¹, a kon of 15800 M⁻¹ s⁻¹ and a t1/2 of 65 min. For the same molecule, in assay [4], the “Binding Signal with 30 sec Association” value was found to be 0 nm and the “Binding Signal with 300 sec Association” value is 0.21 nm. Further, in assay [5], the “Binding Signal with 30 sec Association” value came out at 0.3 nm and the “Binding Signal with 300 sec Association” value came out at 0.47 nm. The “IC50 [M], inhibition of hGREM1-His” value in assay [6] amounted to 5.4e-10 M. In assay [7], the “Reduction … at 30 sec” value was found to be 0.3 nm and the “Reduction … at 300 sec” value is 0.26 nm. In assay [8], the “% blocked at maximum Ab tested (20 nM)” value is 92% and the IC50 is less than 0.025 nM.

B4: H4H6240P (antibody, human IgG4, V domains shown)
VH: QVQLVESGGGVVQPGRSLRLSCAASGFTFSSYGMHWVRQAPGKGLEWVAVIWYDGSNKYYADSVKGRFIISRDNSKNMMYLQMNSLRAEDTAVYYCAREDNWNYAFDYWGQGTLVTVSS
VL: EIVMTQSPATLSVSPGERATLSCRASQSISSNLAWYQQKPGQAPRLLIYDSSTRATGIPARFSGSGSGTQFTLTISSLQSEDFALYYCQQYSNWPPFTFGPGTKVDIK
notes: H4H prefix = human IgG4 Fc
As for B4, in assay [1], the affinity, expressed as Kd, was 9.75 nM; the koff turned out to be 0.00118 s⁻¹; the kon is 121000 M⁻¹ s⁻¹; the t1/2 turned out to be 10 min. Also, the “hGREM1-His Inhibition IC50, M; W-20-17 cell differentiation assay (alkaline phosphatase)” value in assay [2] worked out at 7.8 nM. In addition, in assay [3], binding was put at a Kd of 4 nM, the koff turned out to be 0.000319 s⁻¹, the kon was determined as 79700 M⁻¹ s⁻¹ and the t1/2 was found to be 36 min. In assay [4], the “Binding Signal with 30 sec Association” value was 0.05 nm and the “Binding Signal with 300 sec Association” value amounted to 0.37 nm. Besides, in assay [5], the “Binding Signal with 30 sec Association” value came out at 0.23 nm and the “Binding Signal with 300 sec Association” value amounted to 0.53 nm. Besides, the “IC50 [M], inhibition of hGREM1-His” value in assay [6] was 8.1e-10 M. In addition, in assay [7], the “Reduction … at 30 sec” value worked out at 0.18 nm and the “Reduction … at 300 sec” value turned out to be 0.16 nm. Also, in assay [8], the “% blocked at maximum Ab tested (20 nM)” value came out at 60% and the IC50 turned out to be 0.65 nM.

B5: H4H6245P (antibody, human IgG4, V domains shown)
VH: EVQLVESGGGLVQPGGSLRLSCAASGFTFNSFWMSWVRQAPGKGLEWVANIKQDGSEKYYVDSVKGRFTISRDNAKNSVYLQMNSLRAEDTAVYYCARDLVTSFDYWGQGTLVTVSS
VL: DIQMTQSPSSLSASVGDRVTITCQASQDINNYLNWYQQKPGKAPKLLIYDASYLETGVPSGFSGSGSGTDFTFTISSLQPEDIATYYCQQYDSLPYTFGQGTKLEIK
notes: H4H prefix = human IgG4 Fc
B5: in assay [1], the Kd came to 2.53 nM, the koff was determined as 0.000262 s⁻¹, the kon is 103000 M⁻¹ s⁻¹ and the t1/2 stood at 44 min. The “hGREM1-His Inhibition IC50, M; W-20-17 cell differentiation assay (alkaline phosphatase)” value in assay [2] was 6.1 nM. In assay [3], this molecule yielded a Kd of 1.51 nM, a koff of 0.000117 s⁻¹, a kon of 77900 M⁻¹ s⁻¹ and a t1/2 of 98 min. Also, in assay [4], the “Binding Signal with 30 sec Association” value was determined as 0.02 nm and the “Binding Signal with 300 sec Association” value worked out at 0.22 nm. Besides, in assay [5], the “Binding Signal with 30 sec Association” value is 0.23 nm and the “Binding Signal with 300 sec Association” value is 0.41 nm. The “IC50 [M], inhibition of hGREM1-His” value in assay [6] was 5.3e-10 M. Further, in assay [7], the “Reduction … at 30 sec” value was determined as 0.21 nm and the “Reduction … at 300 sec” value came out at 0.19 nm. In addition, in assay [8], the “% blocked at maximum Ab tested (20 nM)” value was 96% and the IC50 came out at 0.036 nM.
